Earlier results as cited in publication PMC6551275.

Biological target: UBQLN2 UBA (Homo sapiens) (UniProt Q9UHD9)
Sequence (Q9UHD9 578-624): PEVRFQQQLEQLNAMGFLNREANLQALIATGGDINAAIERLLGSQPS

UBQLN2 UBL, sequence (Q9UHD9 33-107): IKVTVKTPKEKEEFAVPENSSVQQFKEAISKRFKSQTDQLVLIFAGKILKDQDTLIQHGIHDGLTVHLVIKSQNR

Substance: UBQLN2 UBL (from UniProt Q9UHD9)
- Kd: 175 µM
